The record followed here is publication PMC11423142, “Clec7a Worsens Long‐Term Outcomes after Ischemic Stroke by Aggravating Microglia‐Mediated Synapse Elimination” (Advanced Science, 2024).

The assay has as its target T1, purified human Clec7a protein (R&D Systems Cat. 1859-DC-050) (human, UniProt Q9BXN2 66-247).
T1 construct: Clec7a, human, bought recombinant protein; source: bought: R&D Systems (Cat. 1859-DC-050)
T1 sequence (looked up): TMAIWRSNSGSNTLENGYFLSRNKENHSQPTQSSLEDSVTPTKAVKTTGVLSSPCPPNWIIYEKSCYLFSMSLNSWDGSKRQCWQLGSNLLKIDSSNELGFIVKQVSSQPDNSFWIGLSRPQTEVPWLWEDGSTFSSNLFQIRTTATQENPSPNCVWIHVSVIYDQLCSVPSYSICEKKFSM
As to the kind of experiment: MST; Monolith NT.115, 20 °C, 20 mM HEPES pH 8.0, 150 mM NaCl; Clec7a constant at 50 nM, MD2 varied from 10 µM to 1.2 nM; n = 3. The note with it: both partners purified.

B1: human MD2 protein (R&D Systems Cat. 1787-MD) (ligand, UniProt Q9Y6Y9 19-160, looked up)
chain: QKQYWVCNSSDASISYTYCDKMQYPISINVNPCIELKRSKGLLHIFYIPRRDLKQLYFNLYITVNTMNLPKRKEVICRGSDDDYSFCRALKGETVNTTISFSFKGIKFSKGKYKCVVEAISGSPEEMLFCLEFVILHQPNSN
notes: MD2 (lymphocyte antigen 96), human, bought recombinant protein; source: bought: R&D Systems (Cat. 1787-MD)
B1 displayed a Kd of 2960 nM.

As a reminder, the Kd is the concentration at which binding is half-saturated.
